These results are taken from patent publication US20040018971A1 (published 2004).

As usually defined, the IC50 is the midpoint of a concentration-inhibition curve. Read a high IC50 as lower potency.

Experiment [1] addresses T1, HLA-DR3 (DRB1*0301) (human).
T1 construct: purified HLA class II molecule
Put plainly: competition binding assay, purified HLA, 125I-labelled probe peptide, gel filtration. For orientation: Size exclusion chromatography separates by hydrodynamic size, large species first.

In experiment [2] the target is HLA-B*0702 (human). The experiment can be described thus: competition with 125I probe peptide, purified HLA.
The target in experiment [3] is T2, HLA-A*0101 (human).
T2 construct: also called HLA-A1
The experiment can be described thus: competition with 125I-labelled probe peptide for purified HLA-A*0101, gel filtration; relative to standard peptide.

Experiment [4] has as its target HLA-B*0702 (human). The experiment can be described thus: competition with 125I-labelled probe peptide for purified HLA, gel filtration.
The target of experiment [5] is HLA-B*5401 (human). Put plainly: competition vs 125I-labeled standard peptide, purified HLA.
The target of experiment [6] is HLA-B*0702 (human). The description is as above.

In the case of ETEYHADGGKVPIKW (also called Her2/neu.874) [HER2/neu peptide ETEYHADGGKVPIKW (position 874)], the relative binding ratio in experiment [1] was -0.0027 ratio to standard peptide.
The same measure, in the same setting: in the case of YNYLSTDVGSCTLVC (also called Her2/neu.301) [HER2/neu peptide YNYLSTDVGSCTLVC (position 301)] it was 0.0059 ratio to standard peptide.

B1: Her2/neu.642 (peptide)
peptide: CPAEQRASPL
notes: native HER2/neu peptide from position 642
In the case of B1, the IC50 in experiment [2] is 37 nM.
As to LMTFGAKPY [HER2/neu peptide, position 915, 9 amino acids], the “relative binding ratio (IC50 of standard peptide / IC50 of test peptide)” value in experiment [3] was found to be 0.0011 relative binding ratio.
Take LVTYNTDTFESMPNP (also called Her2/neu.271) [HER2/neu peptide LVTYNTDTFESMPNP (position 271)]: the relative binding ratio in experiment [1] was -0.0027 ratio to standard peptide.
With MPNPEGRY [HER2/neu peptide, position 282, 8 amino acids], in experiment [4], the relative binding ratio was < 0.0006 ratio (IC50 of standard / IC50 of test peptide).
For ASPLDSTFY [HER2/neu peptide, position 997, 9 amino acids], the “relative binding ratio (IC50 of standard peptide / IC50 of test peptide)” value in experiment [3] turned out to be 0.029 relative binding ratio.
Same read-out and setting: in the case of LGSGAFGTVY [HER2/neu peptide, position 726, 10 amino acids] it was 0.001 relative binding ratio.
For the molecule MRRLLQETELVEPLT (also called Her2/neu.687) [HER2/neu peptide MRRLLQETELVEPLT (position 687)], the relative binding ratio in experiment [1] is -0.0027 ratio to standard peptide.
For the molecule ETLEEITGY [HER2/neu peptide, position 401, 9 amino acids], the “relative binding ratio (IC50 of standard peptide / IC50 of test peptide)” value in experiment [3] was determined as 0.043 relative binding ratio.
Consider VTCFGPEADQCVACA (also called Her2/neu.574) [HER2/neu peptide VTCFGPEADQCVACA (position 574)], for which the relative binding ratio in experiment [1] was -0.0027 ratio to standard peptide.
For the molecule NKEILDEAY [HER2/neu peptide, position 764, 9 amino acids], the “relative binding ratio (IC50 of standard peptide / IC50 of test peptide)” value in experiment [3] was found to be 0.0017 relative binding ratio.
The same measure, in the same setting: to ASCVTACPY (also called Her2/neu.293) [HER2/neu peptide, position 293, 9 amino acids] belongs 0.055 relative binding ratio.
Consider PSGVKPDLSYMPIWK (also called Her2/neu.601) [HER2/neu peptide PSGVKPDLSYMPIWK (position 601)], for which the relative binding ratio in experiment [1] was -0.0027 ratio to standard peptide.
With SLSFLQDIQEVQGYV (also called Her2/neu.70) [HER2/neu peptide SLSFLQDIQEVQGYV (position 70)], in experiment [1], the relative binding ratio is 0.052 ratio to standard peptide.
Take SDVFDGDLGMGAAKG (also called Her2/neu.1083) [HER2/neu peptide SDVFDGDLGMGAAKG (position 1083)]: in experiment [1], the relative binding ratio is -0.0025 ratio to standard peptide.
Consider PTAENPEY [HER2/neu peptide, position 1241, 8 amino acids], for which the “relative binding ratio (IC50 of standard peptide / IC50 of test peptide)” value in experiment [3] was 0.003 relative binding ratio.
On the same count and under the same terms, to AFSPAFDNLYY [HER2/neu peptide, position 1212, 11 amino acids] belongs 0.014 relative binding ratio.
On to DLTLGLEPSEEEAPR (also called Her2/neu.1058) [HER2/neu peptide DLTLGLEPSEEEAPR (position 1058)], for which the relative binding ratio in experiment [1] was -0.0025 ratio to standard peptide.
Regarding MGDLVDAEEY [HER2/neu peptide, position 1014, 10 amino acids], the “relative binding ratio (IC50 of standard peptide / IC50 of test peptide)” value in experiment [3] was 0.012 relative binding ratio.
As to SGAFGTVY [HER2/neu peptide, position 728, 8 amino acids], the “relative binding ratio (IC50 of standard peptide / IC50 of test peptide)” value in experiment [3] was -0.0021 relative binding ratio.
Consider LQDIQEVQGY [HER2/neu peptide, position 74, 10 amino acids], for which the “relative binding ratio (IC50 of standard peptide / IC50 of test peptide)” value in experiment [3] is 0.0015 relative binding ratio.
On the same count and under the same terms, in the case of KCSKPCARVCY [HER2/neu peptide, position 333, 11 amino acids] it was -0.0017 relative binding ratio.
On the same count and under the same terms, in the case of FSPAFDNLY [HER2/neu peptide, position 1213, 9 amino acids] it was 0.043 relative binding ratio; in that of FGASCVTACPY [HER2/neu peptide, position 291, 11 amino acids], 0.01 relative binding ratio.

B2: Her2/neu.336 (peptide)
peptide: KPCARVCYGL
notes: native HER2/neu peptide from position 336
B2 registered a half-maximal inhibitory concentration (IC50) in experiment [2] of 149 nM.
For GSGAFGTVY [HER2/neu peptide, position 727, 9 amino acids], in experiment [3], the “relative binding ratio (IC50 of standard peptide / IC50 of test peptide)” value stood at 0.0011 relative binding ratio.
Still for that read-out and setting: in the case of PSGVKPDLSY [HER2/neu peptide, position 601, 10 amino acids] it was 0.001 relative binding ratio.
For YRSLLEDDDMGDLVD (also called Her2/neu.1005) [HER2/neu peptide YRSLLEDDDMGDLVD (position 1005)], the relative binding ratio in experiment [1] was 0.063 ratio to standard peptide.
As for PTHDPSPLQRY (H is used here) [HER2/neu peptide, position 1102, 11 amino acids], the “relative binding ratio (IC50 of standard peptide / IC50 of test peptide)” value in experiment [3] is 0.016 relative binding ratio.
Still for that read-out and setting: to QIAKGMSY [HER2/neu peptide, position 828, 8 amino acids] belongs -0.0021 relative binding ratio.
Regarding VHTVPWDQLFRNPHQ (also called Her2/neu.477) [HER2/neu peptide VHTVPWDQLFRNPHQ (position 477)], the relative binding ratio in experiment [1] was 0.022 ratio to standard peptide.
NQEVTAEDGTQRCEK (also called Her2/neu.319) [HER2/neu peptide NQEVTAEDGTQRCEK (position 319)]: the relative binding ratio in experiment [1] is -0.0027 ratio to standard peptide.
The same measure, in the same setting: to SLAFLPESFDGDPAS (also called Her2/neu.373) [HER2/neu peptide SLAFLPESFDGDPAS (position 373)] belongs -0.0027 ratio to standard peptide.
Consider DMGDLVDAEEY [HER2/neu peptide, position 1013, 11 amino acids], for which the “relative binding ratio (IC50 of standard peptide / IC50 of test peptide)” value in experiment [3] is 0.0027 relative binding ratio.
On the same count and under the same terms, to CSKPCARVCY [HER2/neu peptide, position 334, 10 amino acids] belongs 0.0016 relative binding ratio.
In the case of DNLYYWDQDPPERGA (also called Her2/neu.1218) [HER2/neu peptide DNLYYWDQDPPERGA (position 1218)], the relative binding ratio in experiment [1] was -0.0025 ratio to standard peptide.
For EADQCVACAHY (also called Her2/neu.580) [HER2/neu peptide, position 580, 11 amino acids], in experiment [3], the “relative binding ratio (IC50 of standard peptide / IC50 of test peptide)” value is 0.1 relative binding ratio.
Take KNGVVKDVFAFGGAV (also called Her2/neu.1177) [HER2/neu peptide KNGVVKDVFAFGGAV (position 1177)]: the relative binding ratio in experiment [1] is -0.0025 ratio to standard peptide.
Same read-out and setting: to GDLVDAEEYLVPQQG (also called Her2/neu.1015) [HER2/neu peptide GDLVDAEEYLVPQQG (position 1015)] belongs 0.025 ratio to standard peptide.
Turning to HQSDVWSY [HER2/neu peptide, position 901, 8 amino acids], the “relative binding ratio (IC50 of standard peptide / IC50 of test peptide)” value in experiment [3] is -0.0021 relative binding ratio.
In experiment [2], SPGGLREL [Her2/neu.133 (8-mer)] came in with an IC50 of 100 nM.
Turning to IWKFPDEEGACQPCP (also called Her2/neu.613) [HER2/neu peptide IWKFPDEEGACQPCP (position 613)], in experiment [1], the relative binding ratio is -0.0027 ratio to standard peptide.
Same read-out and setting: to KGPLPTDCCHEQCAA (also called Her2/neu.228) [HER2/neu peptide KGPLPTDCCHEQCAA (position 228)] belongs -0.0027 ratio to standard peptide.
Consider SMPNPEGRY [HER2/neu peptide, position 281, 9 amino acids], for which, in experiment [3], the “relative binding ratio (IC50 of standard peptide / IC50 of test peptide)” value was 0.0028 relative binding ratio.
On to ETHLDMLRHLY (also called Her2/neu.40) [HER2/neu peptide, position 40, 11 amino acids], for which the “relative binding ratio (IC50 of standard peptide / IC50 of test peptide)” value in experiment [3] was 0.28 relative binding ratio.
With RSLLEDDDMGDLVDA (also called Her2/neu.1006) [HER2/neu peptide RSLLEDDDMGDLVDA (position 1006)], the relative binding ratio in experiment [1] is 0.008 ratio to standard peptide.
Turning to MTFGAKPY [HER2/neu peptide, position 916, 8 amino acids], in experiment [3], the “relative binding ratio (IC50 of standard peptide / IC50 of test peptide)” value was -0.0021 relative binding ratio.
Same read-out and setting: to LEEITGYLY [HER2/neu peptide, position 403, 9 amino acids] belongs 0.0057 relative binding ratio.
With TAPLQPEQLQVFETL (also called Her2/neu.389) [HER2/neu peptide TAPLQPEQLQVFETL (position 389)], the relative binding ratio in experiment [1] is 0.0023 ratio to standard peptide.
On the same count and under the same terms, to AIKVLRENTSPKANK (also called Her2/neu.751) [HER2/neu peptide AIKVLRENTSPKANK (position 751)] belongs 0.0075 ratio to standard peptide; to DTILWKDIFHKNNQL (also called Her2/neu.165) [HER2/neu peptide DTILWKDIFHKNNQL (position 165)], -0.0027 ratio to standard peptide.
Consider SPGGLRELQL [Her2/neu.133 (10-mer)], for which, in experiment [2], the IC50 was found to be 95 nM.
With FVVIQNEDLGPASPL (also called Her2/neu.986) [HER2/neu peptide FVVIQNEDLGPASPL (position 986)], the relative binding ratio in experiment [1] was -0.0025 ratio to standard peptide.
Regarding GASCVTACPY [HER2/neu peptide, position 292, 10 amino acids], the “relative binding ratio (IC50 of standard peptide / IC50 of test peptide)” value in experiment [3] stood at 0.0012 relative binding ratio.
Regarding TVPLPSETDGYVAPL (also called Her2/neu.1117) [HER2/neu peptide TVPLPSETDGYVAPL (position 1117)], in experiment [1], the relative binding ratio was -0.0025 ratio to standard peptide.
Still for that read-out and setting: to NKEILDEAYVMAGVG (also called Her2/neu.764) [HER2/neu peptide NKEILDEAYVMAGVG (position 764)] belongs 0.0047 ratio to standard peptide.

B3: Her2/neu.649, 10-mer (peptide)
peptide: SPLTSIISAV
notes: 10-mer native HER2/neu peptide starting at position 649
For the molecule B3, the half-maximal inhibitory concentration (IC50) in experiment [5] came out at 667 nM; in experiment [6] it was 61 nM.
Turning to AFSPAFDNLY [HER2/neu peptide, position 1212, 10 amino acids], in experiment [3], the “relative binding ratio (IC50 of standard peptide / IC50 of test peptide)” value is 0.001 relative binding ratio.
